From US20060257938A1, “Method of screening for drugs that block ligand binding to a lipid binding protein” (priority 2005, published 2006)
Where a chain is given by its changes, count along the chain named. Values joined by “and” are separate entries in the source; they are usually repeats but may differ in a detail not shown here. Equal values may be shown once.

B1: 14N, 72A (protein, listed as Rattus norvegicus)
chain: AFDGTWKVDRNENNEKFMEKMGINVVKRKLGAHDNLKLTITQEGNKFTVKESSNFRNIDVVFELGVDFAYSAADGTELTGTWTMEGNKLVGKFKRVDNGKELIAVREISGNELIQTYTYEGVEAKRIFKKE
modifications: PEPTIDE (1)...(131) wild-type rat intestinal fatty acid binding protein
B2: 17D, 72A (protein, listed as Rattus norvegicus)
chain: B1 chain with N14Y, F17D
modifications: PEPTIDE (1)...(131) wild-type rat intestinal fatty acid binding protein
B3: 17C, 72A (protein, listed as Rattus norvegicus)
chain: B1 chain with N14Y, F17C
modifications: PEPTIDE (1)...(131) wild-type rat intestinal fatty acid binding protein
B4: 14Q, 72A (protein, listed as Rattus norvegicus)
chain: B1 chain with N14Q
modifications: PEPTIDE (1)...(131) wild-type rat intestinal fatty acid binding protein
B5: 17K 72A (protein, listed as Rattus norvegicus)
chain: B1 chain with N14Y, F17K
modifications: PEPTIDE (1)...(131) wild-type rat intestinal fatty acid binding protein
B6: 102K, 72A (protein, listed as Rattus norvegicus)
chain: B1 chain with N14Y, L102K
modifications: PEPTIDE (1)...(131) wild-type rat intestinal fatty acid binding protein
B7: 17F, 72A (protein, listed as Rattus norvegicus)
chain: B1 chain with N14Y
modifications: PEPTIDE (1)...(131) wild-type rat intestinal fatty acid binding protein
B8: 14R, 72A (protein, listed as Rattus norvegicus)
chain: B1 chain with N14R
modifications: PEPTIDE (1)...(131) wild-type rat intestinal fatty acid binding protein
B9: 17H, 72A (protein, listed as Rattus norvegicus)
chain: B1 chain with N14Y, F17H
modifications: PEPTIDE (1)...(131) wild-type rat intestinal fatty acid binding protein
B10: 17G, 72A (protein, listed as Rattus norvegicus)
chain: B1 chain with N14Y, F17G
modifications: PEPTIDE (1)...(131) wild-type rat intestinal fatty acid binding protein
B11: 17M, 72A (protein, listed as Rattus norvegicus)
chain: B1 chain with N14Y, F17M
modifications: PEPTIDE (1)...(131) wild-type rat intestinal fatty acid binding protein
B12: 17I, 72A (protein, listed as Rattus norvegicus)
chain: B1 chain with N14Y, F17I
modifications: PEPTIDE (1)...(131) wild-type rat intestinal fatty acid binding protein
B13: 14P, 72A (protein, listed as Rattus norvegicus)
chain: B1 chain with N14P
modifications: PEPTIDE (1)...(131) wild-type rat intestinal fatty acid binding protein
B14: 17E, 72A (protein, listed as Rattus norvegicus)
chain: B1 chain with N14Y, F17E
modifications: PEPTIDE (1)...(131) wild-type rat intestinal fatty acid binding protein
B15: 17L, 72A (protein, listed as Rattus norvegicus)
chain: B1 chain with N14Y, F17L
modifications: PEPTIDE (1)...(131) wild-type rat intestinal fatty acid binding protein
B16: 17P, 72A (protein, listed as Rattus norvegicus)
chain: B1 chain with N14Y, F17P
modifications: PEPTIDE (1)...(131) wild-type rat intestinal fatty acid binding protein
B17: 14W, 72A (protein, listed as Rattus norvegicus)
chain: B1 chain with N14W
modifications: PEPTIDE (1)...(131) wild-type rat intestinal fatty acid binding protein
B18: 14T, 72A (protein, listed as Rattus norvegicus)
chain: B1 chain with N14T
modifications: PEPTIDE (1)...(131) wild-type rat intestinal fatty acid binding protein
B19: 102L, 72A (protein, listed as Rattus norvegicus)
chain: B1 chain with N14Y
modifications: PEPTIDE (1)...(131) wild-type rat intestinal fatty acid binding protein
B20: 17A, 72A (protein, listed as Rattus norvegicus)
chain: B1 chain with N14Y, F17A
modifications: PEPTIDE (1)...(131) wild-type rat intestinal fatty acid binding protein
B21: 14V, 72A (protein, listed as Rattus norvegicus)
chain: B1 chain with N14V
modifications: PEPTIDE (1)...(131) wild-type rat intestinal fatty acid binding protein
B22: 17N, 72A (protein, listed as Rattus norvegicus)
chain: B1 chain with N14Y, F17N
modifications: PEPTIDE (1)...(131) wild-type rat intestinal fatty acid binding protein
B23: 14S, 72A (protein, listed as Rattus norvegicus)
chain: B1 chain with N14S
modifications: PEPTIDE (1)...(131) wild-type rat intestinal fatty acid binding protein

Test: Probe fluorescence ratio response to arachidonic acid relative to ADIFAB2
Format: binding
Conditions: arachidonic acid; response relative to ADIFAB2
Outline: (§1)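 Fluorescently labeled rat intestinal FABP variants were read at two emission wavelengths, near the unbound maximum (about 420 to 480 nm) and the FFA-bound maximum (about 495 to 580 nm). R = Fλ1/Fλ2 after subtracting probe-free intensity; ΔR = R+agent − R0, normalized to ADIFAB2 (rI-FABP-L72A).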

Molecule | DR/DR AA
B1 | 0.42
B2 | 0.28
B3 | 0.15
B4 | 0.50
B5 | 0.28
B6 | 0.47
B7 | 1.37
B8 | 0.49
B9 | 0.52
B10 | 0.48
B11 | 0.59
B12 | 0.64
B13 | 0.55
B14 | 0.80
B15 | 0.52 and 0.525
B16 | 0.51
B17 | 0.30
B18 | 0.64
B19 | 1.25 and 1.103
B20 | 0.53
B21 | 0.76 and 0.756
B22 | 0.47
B23 | 0.46

Test: Probe fluorescence ratio response to palmitic acid relative to ADIFAB2
Format: binding
Conditions: response relative to ADIFAB2
Outline: as §1

Molecule | DR/DR PA
B1 | 0.32
B2 | 0.16
B3 | 0.10
B4 | 0.33
B5 | 0.13
B6 | 0.23
B7 | 1.14
B8 | 0.26
B9 | 0.22
B10 | 0.28
B11 | 0.28 and 0.281
B12 | 0.28 and 0.283
B13 | 0.30
B14 | 0.53
B15 | 0.28 and 0.279
B16 | 0.24
B17 | 0.23
B18 | 0.36
B19 | 0.97 and 1.012
B20 | 0.24
B21 | 0.43
B22 | 0.22
B23 | 0.27

Test: Probe fluorescence ratio response to oleic acid relative to ADIFAB2
Format: binding
Conditions: response relative to ADIFAB2
Outline: as §1

Molecule | DR/DR OA
B1 | 0.35
B2 | 0.26
B3 | 0.31
B4 | 0.29
B5 | 0.31
B6 | 0.48
B7 | 1.42
B8 | 0.26
B9 | 0.40
B10 | 0.52
B11 | 0.49
B12 | 0.62 and 0.624
B13 | 0.58
B14 | 0.84
B15 | 0.46 and 0.459
B16 | 0.55
B17 | 0.26
B18 | 0.56
B19 | 1.40 and 1.366
B20 | 0.38
B21 | 0.51 and 0.513
B22 | 0.49
B23 | 0.33

Test: Probe fluorescence ratio response to linolenic acid relative to ADIFAB2
Format: binding
Conditions: response relative to ADIFAB2
Outline: as §1

Molecule | DR/DR LNA
B1 | 0.53
B2 | 0.34
B3 | 0.26
B4 | 0.52
B5 | 0.29
B6 | 0.51
B7 | 1.38
B8 | 0.51
B9 | 0.50
B10 | 0.62
B11 | 0.53 and 0.532
B12 | 0.54 and 0.541
B13 | 0.64
B14 | 0.88
B15 | 0.45 and 0.447
B16 | 0.63
B17 | 0.31
B18 | 1.15
B19 | 1.41 and 1.284
B20 | 0.97
B21 | 0.87 and 0.868
B22 | 0.51
B23 | 0.53

Test: Probe fluorescence ratio response to linoleic acid relative to ADIFAB2
Format: binding
Conditions: response relative to ADIFAB2
Outline: as §1

Molecule | DR/DR LA
B1 | 0.49
B2 | 0.31
B3 | 0.25
B4 | 0.48
B5 | 0.33
B6 | 0.55
B7 | 1.35
B8 | 0.56
B9 | 0.48
B10 | 0.58
B11 | 0.49 and 0.489
B12 | 0.50 and 0.499
B13 | 0.64
B14 | 0.90
B15 | 0.42
B16 | 0.60
B17 | 0.33
B18 | 0.76
B19 | 1.40 and 1.267
B20 | 0.56
B21 | 0.84 and 0.836
B22 | 0.50
B23 | 0.53
